The source of these data is publication PMC9482650, “Quantitative fragmentomics allow affinity mapping of interactomes” (Nature Communications, 2022).

Targets include MAGI1_6, Q96QZ7; MAGI3_5, Q5TCQ9; PTPN13_2, Q12923; MAGI1_5, Q96QZ7; SDCBP_1, O00560; CNKSR3, Q6P9H4; MAGI3_6, Q5TCQ9; Inadl_7, Q8NI35; DLG5_2, Q8TDM6; RIMS1, Q86UR5.
Holding throughout (experiment): holdup assay
What all share (design): key: below the threshold = too weak to quantify, mostly under pKd 3.1 to 4
Holding throughout (conditions): plain residues with an end cap or a label only (N-terminal biotin on a linker: ttds)

The next assay addresses T1, MPDZ_6, O75970.
T1 sequence (O75970 1003-1099, limits assumed, looked up): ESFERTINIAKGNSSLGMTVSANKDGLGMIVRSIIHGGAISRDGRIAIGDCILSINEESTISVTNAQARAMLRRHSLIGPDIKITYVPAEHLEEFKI

In another assay the target is T2, DVL1, O14640.
T2 sequence (O14640 246-333, limits assumed, looked up): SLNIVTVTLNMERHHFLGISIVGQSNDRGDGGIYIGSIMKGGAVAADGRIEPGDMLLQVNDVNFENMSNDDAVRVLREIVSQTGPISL

A further assay addresses T3, PDZD7_2, Q9H5P4.
T3 sequence (Q9H5P4 205-303, limits assumed, looked up): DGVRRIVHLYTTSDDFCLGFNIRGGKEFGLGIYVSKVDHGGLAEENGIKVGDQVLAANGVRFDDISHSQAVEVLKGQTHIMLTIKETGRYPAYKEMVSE

For a further assay, the target named is T4, USH1C_2, Q9Y6N9.
T4 sequence (Q9Y6N9 206-303, limits assumed, looked up): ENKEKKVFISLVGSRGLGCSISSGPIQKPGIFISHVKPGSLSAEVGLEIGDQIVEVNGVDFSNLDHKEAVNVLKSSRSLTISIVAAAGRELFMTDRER

In another assay the target is T5, MPDZ_13, O75970.
T5 sequence (O75970 1982-2070, limits assumed, looked up): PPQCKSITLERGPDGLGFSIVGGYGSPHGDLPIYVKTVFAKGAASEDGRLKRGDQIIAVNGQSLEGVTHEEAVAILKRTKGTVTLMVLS

A further assay deals with T6, NHERF3_2, Q5T2W1.
T6 sequence (Q5T2W1 129-225, limits assumed, looked up): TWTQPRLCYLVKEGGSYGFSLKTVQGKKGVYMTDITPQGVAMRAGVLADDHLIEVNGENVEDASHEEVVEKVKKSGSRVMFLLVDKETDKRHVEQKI

For another assay, the target named is T7, SIPA1L3, O60292.
T7 sequence (O60292 961-1052, limits assumed, looked up): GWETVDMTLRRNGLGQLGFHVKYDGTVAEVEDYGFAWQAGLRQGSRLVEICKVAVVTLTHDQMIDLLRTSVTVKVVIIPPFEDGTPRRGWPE

The target in another assay is T8, MPDZ_11, O75970.
T8 sequence (O75970 1720-1817, limits assumed, looked up): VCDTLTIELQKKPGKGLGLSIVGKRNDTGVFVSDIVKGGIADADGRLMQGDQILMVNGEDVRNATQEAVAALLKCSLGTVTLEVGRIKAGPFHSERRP

The next assay has as its target T9, USH1C_3, Q9Y6N9.
T9 sequence (Q9Y6N9 447-547, limits assumed, looked up): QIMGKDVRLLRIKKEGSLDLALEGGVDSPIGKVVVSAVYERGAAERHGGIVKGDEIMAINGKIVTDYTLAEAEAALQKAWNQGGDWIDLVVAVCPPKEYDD

The target in another assay is T10, PDZD2_6, O15018.
T10 sequence (O15018 2745-2839, limits assumed, looked up): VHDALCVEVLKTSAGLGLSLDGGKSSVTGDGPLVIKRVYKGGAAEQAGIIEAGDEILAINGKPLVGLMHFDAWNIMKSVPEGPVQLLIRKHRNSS

Another assay has as its target T11, PDZD2_1, O15018.
T11 sequence (O15018 80-192, limits assumed, looked up): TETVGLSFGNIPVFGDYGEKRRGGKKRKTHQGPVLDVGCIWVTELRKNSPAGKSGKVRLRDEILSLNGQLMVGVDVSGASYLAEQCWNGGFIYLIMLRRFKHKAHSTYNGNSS

In the next assay the target is T12, INTU, Q9ULD6.
T12 sequence (Q9ULD6 180-273, limits assumed, looked up): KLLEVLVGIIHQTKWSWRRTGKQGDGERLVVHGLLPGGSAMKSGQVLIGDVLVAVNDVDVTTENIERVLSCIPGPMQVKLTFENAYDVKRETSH

For a further assay, the target named is T13, TJP3_1, O95049.
T13 sequence (O95049 6-103, limits assumed, looked up): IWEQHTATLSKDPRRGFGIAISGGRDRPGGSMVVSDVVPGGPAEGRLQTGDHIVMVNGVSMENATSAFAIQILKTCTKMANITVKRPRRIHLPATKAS

The target of another assay is T14, PTPN13_4, Q12923.
T14 sequence (Q12923 1783-1878, limits assumed, looked up): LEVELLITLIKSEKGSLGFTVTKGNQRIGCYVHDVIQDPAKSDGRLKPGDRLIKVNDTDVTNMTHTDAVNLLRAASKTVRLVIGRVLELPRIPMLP

Chain of SDCBP_1, O00560 (O00560 111-198): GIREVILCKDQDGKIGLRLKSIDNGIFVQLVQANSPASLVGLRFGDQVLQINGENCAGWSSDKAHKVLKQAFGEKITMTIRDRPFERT
Chain of MAGI1_5, Q96QZ7 (Q96QZ7 986-1098): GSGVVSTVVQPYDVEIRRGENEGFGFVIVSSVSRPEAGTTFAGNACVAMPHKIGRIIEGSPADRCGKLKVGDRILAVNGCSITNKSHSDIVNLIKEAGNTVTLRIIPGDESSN
Chain of MAGI1_6, Q96QZ7 (Q96QZ7 1146-1238): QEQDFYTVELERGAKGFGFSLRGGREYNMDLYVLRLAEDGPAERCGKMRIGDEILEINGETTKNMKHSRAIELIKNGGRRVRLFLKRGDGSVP
Chain of DLG5_2, Q8TDM6 (Q8TDM6 714-800): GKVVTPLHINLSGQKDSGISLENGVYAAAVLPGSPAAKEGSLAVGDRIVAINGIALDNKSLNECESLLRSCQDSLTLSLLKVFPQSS
Chain of CNKSR3, Q6P9H4 (Q6P9H4 203-303): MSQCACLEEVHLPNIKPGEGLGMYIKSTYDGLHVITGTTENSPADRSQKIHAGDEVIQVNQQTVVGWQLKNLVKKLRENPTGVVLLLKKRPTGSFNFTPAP
Chain of RIMS1, Q86UR5 (Q86UR5 584-692): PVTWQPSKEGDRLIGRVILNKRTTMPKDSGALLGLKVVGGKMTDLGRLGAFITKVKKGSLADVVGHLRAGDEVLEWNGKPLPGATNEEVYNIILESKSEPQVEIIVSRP
Chain of MAGI3_5, Q5TCQ9 (Q5TCQ9 847-941): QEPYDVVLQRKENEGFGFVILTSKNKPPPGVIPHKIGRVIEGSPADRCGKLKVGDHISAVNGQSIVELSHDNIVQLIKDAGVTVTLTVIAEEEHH
Chain of MAGI3_6, Q5TCQ9 (Q5TCQ9 1014-1103): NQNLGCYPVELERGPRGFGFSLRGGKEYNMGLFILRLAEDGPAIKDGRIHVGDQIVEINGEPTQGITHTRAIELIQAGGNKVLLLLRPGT
Chain of PTPN13_2, Q12923 (Q12923 1363-1462): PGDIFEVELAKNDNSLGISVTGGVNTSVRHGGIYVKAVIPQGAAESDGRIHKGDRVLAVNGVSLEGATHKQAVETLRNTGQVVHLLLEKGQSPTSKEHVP
Chain of Inadl_7, Q8NI35 (Q8NI35 1219-1332): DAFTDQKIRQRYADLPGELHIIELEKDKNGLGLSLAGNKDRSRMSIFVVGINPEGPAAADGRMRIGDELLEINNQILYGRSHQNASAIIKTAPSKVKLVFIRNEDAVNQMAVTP

B1: HPV30-E6, P36809 (peptide)
chain: RHTTSTETAV
In general, pKd refers to the negative decadic logarithm of the Kd, by convention in mol/L. For the molecule B1, the negative-log Kd (pKd) is 4.73 with MAGI1_6, Q96QZ7; “below the threshold” with MAGI3_5, Q5TCQ9; “below the threshold” in the assay with MPDZ_6, O75970; “below the threshold” with PTPN13_2, Q12923; 5.02 in the assay with MAGI1_5, Q96QZ7; “below the threshold” with DVL1, O14640. For the same molecule, the pKd entry was “below the threshold” in the assay with SDCBP_1, O00560; “below the threshold” with PDZD7_2, Q9H5P4; “below the threshold” with CNKSR3, Q6P9H4; “below the threshold” in the assay with USH1C_2, Q9Y6N9; “below the threshold” with MPDZ_13, O75970; “below the threshold” in the assay with NHERF3_2, Q5T2W1. For the same molecule, the negative-log Kd (pKd) result is reported as “below the threshold” with MAGI3_6, Q5TCQ9; “below the threshold” with SIPA1L3, O60292; “below the threshold” in the assay with MPDZ_11, O75970; “below the threshold” with USH1C_3, Q9Y6N9; “below the threshold” with PDZD2_6, O15018; “below the threshold” with Inadl_7, Q8NI35. For the same molecule, the pKd entry with DLG5_2, Q8TDM6 is on record as “below the threshold”; with RIMS1, Q86UR5 it was “below the threshold”; with PDZD2_1, O15018, “below the threshold”; with INTU, Q9ULD6, “below the threshold”; with TJP3_1, O95049, “below the threshold”; with PTPN13_4, Q12923, “below the threshold”.

B2: ATP2B4, P23634 (peptide)
chain: SSLQSLETSV
On to B2, for which the negative-log Kd (pKd) in the assay with MAGI1_6, Q96QZ7 was 4.49; in the assay with MAGI3_5, Q5TCQ9, “below the threshold”; with MPDZ_6, O75970, “below the threshold”; with PTPN13_2, Q12923, 4.45; with MAGI1_5, Q96QZ7, 4.66; with DVL1, O14640, “below the threshold”. Moreover, the pKd entry with SDCBP_1, O00560 is recorded as “below the threshold”; with PDZD7_2, Q9H5P4, “below the threshold”; in the assay with CNKSR3, Q6P9H4 it was “below the threshold”; with USH1C_2, Q9Y6N9, “below the threshold”; with MPDZ_13, O75970 it was “below the threshold”; with NHERF3_2, Q5T2W1, “below the threshold”. Further, the pKd entry with MAGI3_6, Q5TCQ9 is on record as “below the threshold”; with SIPA1L3, O60292 it was “below the threshold”; with MPDZ_11, O75970, “below the threshold”; with USH1C_3, Q9Y6N9, “below the threshold”; with PDZD2_6, O15018 it was “below the threshold”; with Inadl_7, Q8NI35, “below the threshold”. Also, the pKd with DLG5_2, Q8TDM6 was 4.34; with RIMS1, Q86UR5, “below the threshold”; in the assay with PDZD2_1, O15018, “below the threshold”; in the assay with INTU, Q9ULD6 it was “below the threshold”; with TJP3_1, O95049, “below the threshold”; in the assay with PTPN13_4, Q12923, “below the threshold”.

B3: FRMPD4, Q14CM0 (peptide)
chain: RLPKIKETTV
For B3, the negative-log Kd (pKd) with MAGI1_6, Q96QZ7 is 4.57; with MAGI3_5, Q5TCQ9, “below the threshold”; in the assay with MPDZ_6, O75970, “below the threshold”; with PTPN13_2, Q12923, 4.31; with MAGI1_5, Q96QZ7, 4.5; with DVL1, O14640 it was 4.63. In addition, the pKd result with SDCBP_1, O00560 is “below the threshold”; with PDZD7_2, Q9H5P4 it was “below the threshold”; in the assay with CNKSR3, Q6P9H4, 4.24; in the assay with USH1C_2, Q9Y6N9 it was “below the threshold”; in the assay with MPDZ_13, O75970, “below the threshold”; with NHERF3_2, Q5T2W1, “below the threshold”. Moreover, the pKd entry with MAGI3_6, Q5TCQ9 is listed as “below the threshold”; with SIPA1L3, O60292, “below the threshold”; with MPDZ_11, O75970, “below the threshold”; with USH1C_3, Q9Y6N9 it was “below the threshold”; with PDZD2_6, O15018, “below the threshold”; with Inadl_7, Q8NI35 it was “below the threshold”. Besides, the negative logarithm of the Kd (pKd) in the assay with DLG5_2, Q8TDM6 is 4.7; in the assay with RIMS1, Q86UR5, “below the threshold”; in the assay with PDZD2_1, O15018, “below the threshold”; with INTU, Q9ULD6 it was “below the threshold”; with TJP3_1, O95049, “below the threshold”; with PTPN13_4, Q12923 it was “below the threshold”.

B4: HPV18-E6, P06463 (peptide)
chain: RLQRRRETQV
B4: the pKd entry is listed as “below the threshold” with MAGI1_6, Q96QZ7; “below the threshold” with MAGI3_5, Q5TCQ9; “below the threshold” in the assay with MPDZ_6, O75970; “below the threshold” in the assay with PTPN13_2, Q12923; “below the threshold” in the assay with MAGI1_5, Q96QZ7; “below the threshold” with DVL1, O14640. For the same molecule, the pKd entry is “below the threshold” in the assay with SDCBP_1, O00560; “below the threshold” in the assay with PDZD7_2, Q9H5P4; 4.1 with CNKSR3, Q6P9H4; “below the threshold” in the assay with USH1C_2, Q9Y6N9; “below the threshold” with MPDZ_13, O75970; “below the threshold” with NHERF3_2, Q5T2W1. In addition, the negative logarithm of the Kd (pKd) entry in the assay with MAGI3_6, Q5TCQ9 is reported as “below the threshold”; with SIPA1L3, O60292 it was “below the threshold”; with MPDZ_11, O75970, “below the threshold”; with USH1C_3, Q9Y6N9, “below the threshold”; with PDZD2_6, O15018, “below the threshold”; with Inadl_7, Q8NI35, “below the threshold”. Besides, the pKd result in the assay with DLG5_2, Q8TDM6 was “below the threshold”; with RIMS1, Q86UR5, “below the threshold”; with PDZD2_1, O15018 it was “below the threshold”; with INTU, Q9ULD6 it was “below the threshold”; with TJP3_1, O95049 it was “below the threshold”; with PTPN13_4, Q12923, 4.03.
